assay: soluble on expression in E. coli; label from the status in PepcDB or PDB records

Sequence	soluble on expression in E. coli
MDKKPLNTLISATGLWMSRTGTIHKIKHHEVSRSKIYIEMACGDHLVVNNSRSSRTARALRHHKYRKTCKRCRVSDEDLNKFLTKANEDQTSVKVKVVSAPTRTKKAMPKSVARAPKPLENTEAAQAQPSGSKFSPAIPVSTQESVSVPASVSTSISSISTGATASALVKGNTNPITSMSAPVQASAPALTKSQTDRLEVLLNPKDEISLNSGKPFRELESELLSRRKKDLQQIYAEERENYLGKLEREITRFFVDRGFLEIKSPILIPLEYIERMGIDNDTELSKQIFRVDKNFCLRPMLAPNLYNYLRKLDRALPDPIKIFEIGPCYRKESDGKEHLEEFTMLNFCQMGSGCTRENLESIITDFLNHLGIDFKIVGDSCMVYGDTLDVMHGDLELSSAVVGPIPLDREWGIDKPWIGAGFGLERLLKVKHDFKNIKRAARSESYYNGISTNL	soluble
MKITLIIPTYNAGSIWPNVLDAIKQQTIYPDKLIVIDSGSKDETVLLASDLKNISIFNIDSKDFNHGGTRNLAVTKTLDADVIIFLTQDAILADSDAIKNLVYYFSDPLIAAVCGRQLPHKDANPLAVHARNFNYSSKSIVKSKADIEKFGIKTVFMSNSFAAYRRSVFEELSGFPEHTILAEDMFMAAKMIQAGYKVAYCAEAVVRHSHNYTPREEFQRYFDTGVFHACSPWIQRDLGGAGGEGFRFVKSEIQFLLKNAPFWIPRALLTTFAKFLGYKLGKHWQSLPLSTCRYFSMYKSYWNNIQYSSSKEIKLEHHHHHH	not soluble
MVFRKSLLKLAVFALGACVAFSNANAAEGKLESIKSKGQLIVGVKNDVPHYALLDQATGEIKGFEVDVAKLLAKSILGDDKKIKLVAVNAKTRGPLLDNGSVDAVIATFTITPERKRIYNFSEPYYQDAIGLLVLKEKKYKSLADMKGANIGVAQAATTKKAIGEAAKKIGIDVKFSEFPDYPSIKAALDAKRVDAFSVDKSILLGYVDDKSEILPDSFEPQSYGIVTKKDDPAFAKYVDDFVKEHKNEIDALAKKWGL	soluble
MIMVSGCQQQKEETPFYYGTWDEGRAPGPTDGVKSATVTFTEDEVVETEVMEGRGEVQLPFMAYKVISQSTDGSIEIQYLGPYYPLKSTLKRGENGTLIWEQNGQRKTMTRIESKTGREEKDEKSKSLEHHHHHH	soluble
MTDALGELEADVRADLAMIAHPGAAWLEPKIGPDGKPALDVLVVGAGQSGIAIGFGLMRSRVSNILLLDKAEEGKEGPWLTYARMPTLRSPKDYTGPDLDIPSLTYQSWHEARFGKQSWQELGLIERGHWAEYLLWLRRTVGLPVRNACELLEIAPASDGLLTARVKRAGEVETLYARKIVLATGQEGMGGWMIPEPLRHLPSGSVATVADDIDFEKLRGKRVAVIGAGASAFDNAATALEAGAAEVHLLCRRTQIQVIQPYRWLTFRGFLRHLSDLDDAWRWRFMRTILEMREGFPQATYDRCARHANFTLHEGAPVEAARETGKGVELQTPRGAIPADFVICGTGIDMSFAGRGELAAFAGNIATWADRYQPPSSERNERLGRFPYLADDYAFTERVPGETPWISDIHLFAIASTMSFGPSGSSINAMTTAVPKLVHGLTRGLFRADIARHWASLSAYDVPQAVVTRPARKTGELEHHHHHH	soluble
MGSDKIHHHHHHVVAEAVNLQFDYSRYGFRQEERYVYKAPKGLNERIVRELSGMKGEPEWMLKRRLRALEIFNKKPTPLVGTWANPELAELNYDDIHYFVRANERPQTDWDAVPPEIKNTFERLGIPEAERKFLAGVGAQYESEVVYHSLREEWAKQGVIFLDTDTALKEYPEFFKEYFGTIVPAADNKYAALNTAVWSGGSFVYVPKGVKVDIPLQAYFRINAERMGQFERTLIIIDEGAEAHYIEGCTAPIYSTNSLHSAVVEVIVKKGGKFRYTTIQNWANNIFNLVTKRAVAYEEASMEWVDGNIGSKLTMKYPSVYLMGRKARGEVLSVAYAGRGQHQDAGAKMIHLAPETTSRITNKSVSKDGGKTTYRGLAKVAPGAYGAKINVNCDALILDEHSASDTIPYIEIEEDRCTLAHEATVGRIGAEQLFYLMSRGISESDALSMIVLGFMEPFTRELPMEYAVELNRLIQLEMEGSVG	not soluble
MSLAKQPIDLLIQPKWRIIDQSSLGPYFDAKQSFAIDDTLCASVGKGLSPATARSWVHHDTIVLGIQDTRLPYLQEGISLLEEAGYQAIVRNSGGLAVVLDSGVLNVSLIFQDKKNGIDIDRGYEAMFELVKRMLSSYDAAIEAYEIKGSYCPGSFDLSIGGRKFAGISQRRLRGGVAVQIYLCADQSGSGRAELIKRFYDTALKDMRGKTKAVYPDIRPETMASLSELLNEDISVQDLMLLLLTQLKELGGEIYQGPLTPAEEEVYEKNLVRMIERNEKVFGEGHHHHHH	soluble
MDEEYDAIVLGTGLKECIISGMLSVSGKKVLHIDRNNYYGGESASLTPLEQLYEKFHGPQAKPQQEMGRGRDWNVDLIPKFLMANGPLVKLLIHTGVTRYLEFKSIEASFVVKGGKIYKVPADEMEALATSLMGMFEKRRFKKFLVWVQQFDENKEDTWQGLDPHNSTMQQVYEKFGLDENTADFTGHALALYRDDEHKNQPYAPAVEKIRLYSDSLARYGKSPYLYPLYGLGELPQGFARLSAIYGGTYMLDKPVDEIVMENGKAIGVKCGDEIVRGKQIYCDPSYAKDRVKKTGQVVRAICLLNHPIPNTNDAQSCQIIIPQKQVGRHYDIYISCCSNTNMVTPKGWYLAMVSTTVETANPEAEVLPGLQLLGAIAEKFIQISDVYEPSDLGSESQIFISQSYDATTHFETTCKDVLNMFERGTTKEFDFTNITHLSLNDQE	not soluble
MGQCLGTLCTVDSATDNISSVYQLAGPVAVKESPRIAERDPKVKISVNPEEENVERPCVLYSKSNEIIKKPDIFEEIYKRTPITLSNNGRIDVAELPAGQRVIEVENNEVRDKYKKTLYEIRRKCRELQNLGAEDEETGEIIDTLLILYKDFFLLTTWKIDKYAQLRKNAAVQAYNSLPKLRADPAEFRCHVEFQYRVANELWEHFKETYIHKYEACNWAERAKVKEWDLLDSQVQTPNVEWDYLGAHGYI	not soluble
MAKSYDYQSAFDIIGPVMMGPSSSHTAGAVKIGNSARAILGDIPKNIEIHYYESFAQTHQGHGTDVAIVGGAMGYSTFDNRIKSSLEIAADDGIKIDIIEEEGDSIGQHPNCAYIKSSRNDGRYIEIIGISIGGGTIKIKGIHINGLEVDLNHGLPILVVDGNMTKAQVNHFINDINDMKLDCKDEFIKIDEDKCLVVIPLNKAISESTLNTIKEKYSDVNVSYIN	not soluble
MGSDKIHHHHHHMAIAPTLNIPQAKFLAMQYKFKAYVAGFGSGKTWVGCGGICKGMWEHPKINQGYFAPTYPQIRDIFYPTVEEVAHDWGLNVKINEGNKEVHFYAGRQYRGTTICRSMEKPQTIVGFKIGNALIDELDVMPAKKAQLAWRKIIARMRYNVAGLRNGIDVTTTPEGFKFVYQQFAKAVRDKPSLSTLYGLVQASTFDNEKNLPPDYIPSLMESYPPELIKAYLRGQFTNLTSGTIYHQFDRKLNNCREEEQPGEPLYIGMDFNVGKMAGVVHVLRLGLPFAVTEIIKAYDTPDMIRIIKERFWLCDGHDYRKVREIYIYPDASGDSRKSSNASATDIAQLKQAGFNVVVNASNPPVKDRINAMNAMFCNGNGERRYKVNVKRCPVYTESLEQQVWGENGEPDKTADNDHPNDAGGYFIVKQFPIIKPTGKVTQLRM	not soluble
MSSFSESALEKKLSELSNSQHSVQTLSLWLIHHRKHAGPIVSVWHRELRKAKSNRKLTFLYLANDVIQNSKRKGPEFTREFESVLVDAFSHVAREADEGCKKPLERLLNIWQERSVYGGEFIQQLKLSMEDSKSPPPKATEEKKSLKRTFQQIQEEEDDDYPGSYSPQDPSAGPLLTEELIKALQDLENAASGDATVRQKIASLPQEVQDVSLLEKITDKEAAERLSKTVDEACLLLAEYNGRLAAELEDRRQLARMLVEYTQNQKDVLSEKEKKLEEYKQKLARVTQVRKELKSHIQSLPDLSLLPNVTGGLAPLPSAGDLFSTD	soluble

Reference: the DeepSol protein solubility set
